Results on 16 molecules are retold here after patent US20240116985A1 (published 2024).

The chains are these.
T1: B-cat-Halo (beta-catenin HaloTag fusion expressed in HEK293 cells) (UniProt P35222 1-781)
T1 sequence (looked up): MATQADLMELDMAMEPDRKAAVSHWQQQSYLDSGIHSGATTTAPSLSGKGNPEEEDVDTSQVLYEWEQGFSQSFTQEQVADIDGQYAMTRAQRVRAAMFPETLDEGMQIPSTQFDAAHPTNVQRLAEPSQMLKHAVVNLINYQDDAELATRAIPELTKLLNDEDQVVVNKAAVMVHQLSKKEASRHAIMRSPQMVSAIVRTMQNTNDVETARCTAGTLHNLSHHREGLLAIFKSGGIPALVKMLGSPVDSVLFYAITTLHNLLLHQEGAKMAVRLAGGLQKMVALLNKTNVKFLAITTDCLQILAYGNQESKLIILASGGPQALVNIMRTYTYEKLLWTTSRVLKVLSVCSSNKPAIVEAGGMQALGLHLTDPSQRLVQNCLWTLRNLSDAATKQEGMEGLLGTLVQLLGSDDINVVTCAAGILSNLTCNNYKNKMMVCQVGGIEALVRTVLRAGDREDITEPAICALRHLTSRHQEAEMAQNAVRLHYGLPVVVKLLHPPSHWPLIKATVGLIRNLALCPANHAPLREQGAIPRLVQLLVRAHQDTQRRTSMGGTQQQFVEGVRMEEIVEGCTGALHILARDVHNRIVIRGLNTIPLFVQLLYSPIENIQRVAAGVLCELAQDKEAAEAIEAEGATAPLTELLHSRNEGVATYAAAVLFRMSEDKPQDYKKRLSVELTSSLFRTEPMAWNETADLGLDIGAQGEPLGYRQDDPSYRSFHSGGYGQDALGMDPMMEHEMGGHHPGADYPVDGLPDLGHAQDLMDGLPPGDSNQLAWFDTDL

T2: B-cat-Halo (UniProt P35222 1-781)
T2 sequence (looked up): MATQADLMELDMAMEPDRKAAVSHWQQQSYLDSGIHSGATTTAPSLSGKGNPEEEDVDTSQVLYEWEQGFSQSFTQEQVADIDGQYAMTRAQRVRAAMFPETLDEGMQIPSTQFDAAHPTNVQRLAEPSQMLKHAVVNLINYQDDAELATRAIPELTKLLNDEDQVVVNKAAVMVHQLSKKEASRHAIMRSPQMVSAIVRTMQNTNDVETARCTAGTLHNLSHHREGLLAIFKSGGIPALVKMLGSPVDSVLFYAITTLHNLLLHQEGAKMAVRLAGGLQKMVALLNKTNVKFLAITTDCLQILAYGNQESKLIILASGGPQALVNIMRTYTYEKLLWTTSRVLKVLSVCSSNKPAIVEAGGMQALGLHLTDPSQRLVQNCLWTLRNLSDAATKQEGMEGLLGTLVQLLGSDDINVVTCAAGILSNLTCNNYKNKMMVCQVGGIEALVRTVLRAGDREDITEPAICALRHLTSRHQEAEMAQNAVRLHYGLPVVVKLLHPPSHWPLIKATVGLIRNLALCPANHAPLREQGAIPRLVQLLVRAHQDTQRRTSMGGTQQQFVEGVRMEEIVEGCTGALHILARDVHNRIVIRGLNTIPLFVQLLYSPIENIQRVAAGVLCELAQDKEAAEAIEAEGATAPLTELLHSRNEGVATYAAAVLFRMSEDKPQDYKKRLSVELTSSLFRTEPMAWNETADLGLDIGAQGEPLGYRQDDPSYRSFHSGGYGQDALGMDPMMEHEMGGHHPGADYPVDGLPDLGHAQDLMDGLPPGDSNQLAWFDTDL

T3: B-cat-Halo (UniProt P35222 1-781, HaloTag NanoBRET 618 Ligand bound to the HaloTag in the assay)
T3 sequence (looked up): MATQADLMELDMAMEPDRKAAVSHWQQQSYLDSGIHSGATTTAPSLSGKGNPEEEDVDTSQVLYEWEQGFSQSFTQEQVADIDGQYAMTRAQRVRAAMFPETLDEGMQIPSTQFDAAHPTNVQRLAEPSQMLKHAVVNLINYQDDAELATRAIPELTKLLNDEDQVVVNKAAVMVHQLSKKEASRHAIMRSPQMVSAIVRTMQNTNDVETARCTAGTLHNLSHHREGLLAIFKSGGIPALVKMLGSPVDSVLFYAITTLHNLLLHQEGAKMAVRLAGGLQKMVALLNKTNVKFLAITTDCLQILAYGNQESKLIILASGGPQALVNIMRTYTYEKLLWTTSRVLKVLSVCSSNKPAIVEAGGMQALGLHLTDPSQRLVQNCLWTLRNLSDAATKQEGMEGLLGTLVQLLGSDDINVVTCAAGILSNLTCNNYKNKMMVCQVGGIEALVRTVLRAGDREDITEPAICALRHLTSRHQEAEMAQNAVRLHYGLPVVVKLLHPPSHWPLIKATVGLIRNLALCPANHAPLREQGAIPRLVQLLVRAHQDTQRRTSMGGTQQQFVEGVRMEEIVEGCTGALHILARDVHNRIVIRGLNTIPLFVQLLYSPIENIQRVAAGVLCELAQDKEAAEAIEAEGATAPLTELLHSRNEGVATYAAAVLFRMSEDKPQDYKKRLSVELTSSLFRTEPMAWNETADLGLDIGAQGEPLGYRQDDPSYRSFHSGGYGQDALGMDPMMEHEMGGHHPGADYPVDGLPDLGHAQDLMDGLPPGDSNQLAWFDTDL

B1: I-911 (peptide)
peptide: Ac-[αAllylPro]D[tBuAla][B5(3)]DDAAFN[PyrS2″][3Thi][Bta]QK(mPEG2)-NH2
modifications: staple 1-4, 4-11; not fully specified; printed as Ac-PL3-Asp-Npg-B5-Asp-Asp-Ala-Ala-Phe-Asn-PyrS2-3Thi-BztA-Gln-[mPEG2]Lys-NH2

Starred links: 1 amine or outer side, 2 acyl side, 3 side chain; linkers in the order of their positions; H or OH if unused. Positions of bridges follow the written chain, without caps; N, C: chain ends. Non-standard residues stand in square brackets, D forms with d. Primed or numbered codes have the meaning given here. *: point of attachment. (4CF3PhAc)GA = (S)-2-amino-3-(N-(carboxymethyl)-2-(4-(trifluoromethyl)phenyl)acetamido)propanoic acid, O=C(Cc1ccc(C(F)(F)F)cc1)N(CC(=O)[*:3])C[C@H](N[*:1])C(=O)[*:2]; (PfPhAc)GA = (S)-2-amino-3-(N-(carboxymethyl)-2-(perfluorophenyl)acetamido)propanoic acid, O=C(Cc1c(F)c(F)c(F)c(F)c1F)N(CC(=O)[*:3])C[C@H](N[*:1])C(=O)[*:2]; (MePipAc)GA = (S)-2-amino-3-(N-(carboxymethyl)-2-(4-methylpiperazin-1-yl)acetamido)propanoic acid, CN1CCN(CC(=O)N(CC(=O)[*:3])C[C@H](N[*:1])C(=O)[*:2])CC1; (4AcMePip)GA = (S)-2-amino-3-(N-(carboxymethyl)-1-methylpiperidine-4-carboxamido)propanoic acid, CN1CCC(C(=O)N(CC(=O)[*:3])C[C@H](N[*:1])C(=O)[*:2])CC1; (NdiMeButC)GAbu = (S)-2-amino-4-(N-(carboxymethyl)-4-(dimethylamino)butanamido)butanoic acid, CN(C)CCCC(=O)N(CC[C@H](N[*:1])C(=O)[*:2])CC(=O)[*:3]; PyrS2″ = (S)-3-amino-1-((pent-4-en-1-yloxy)carbonyl)pyrrolidine-3-carboxylic acid (stapling residue), C=CCCCOC(=O)N1CC[C@@](N[*:1])(C(=O)[*:2])C1; (NdiMeButC)GA = (S)-2-amino-3-(N-(carboxymethyl)-4-(dimethylamino)butanamido)propanoic acid, CN(C)CCCC(=O)N(CC(=O)[*:3])C[C@H](N[*:1])C(=O)[*:2]; (Me2NPr)GA = (S)-2-amino-3-(N-(carboxymethyl)-3-(dimethylamino)propanamido)propanoic acid, CN(C)CCC(=O)N(CC(=O)[*:3])C[C@H](N[*:1])C(=O)[*:2]; (MorphAc)GA = (S)-2-amino-3-(N-(carboxymethyl)-2-morpholinoacetamido)propanoic acid, O=C(CN1CCOCC1)N(CC(=O)[*:3])C[C@H](N[*:1])C(=O)[*:2]; PyrS2 = (S)-3-amino-1-((pent-4-en-1-yloxy)carbonyl)pyrrolidine-3-carboxylic acid, C=CCCCOC(=O)N1CC[C@@](N[*:1])(C(=O)[*:2])C1; (Pic)GA = (S)-2-amino-3-(N-(carboxymethyl)picolinamido)propanoic acid, O=C(c1ccccn1)N(CC(=O)[*:3])C[C@H](N[*:1])C(=O)[*:2]; B5(22) = 2-amino-2-(pent-4-en-1-yl)hept-6-enoic acid (two alkene side chains), C=CCCCC(CCCC=C)(N[*:1])C(=O)[*:2]; MorphAsn = (S)-2-amino-4-morpholino-4-oxobutanoic acid, O=C(C[C@H](N[*:1])C(=O)[*:2])N1CCOCC1; B5(3) = 2,2-bis(4-pentenyl)glycine (stitching residue), C=CCCCC(CCCC=C)(N[*:1])C(=O)[*:2]; Me2NCBz = 4-((dimethylamino)methyl)benzoyl on Lys side chain, CN(C)Cc1ccc(C(=O)*)cc1; B5 = 2-amino-2-(pent-4-en-1-yl)hept-6-enoic acid, C=CCCCC(CCCC=C)(N[*:1])C(=O)[*:2]; MeGln = N5-methyl-L-glutamine, CNC(=O)CC[C@H](N[*:1])C(=O)[*:2]; Phe(3-COOH) = N[C@@H](Cc1cccc(C(=O)O)c1)C(=O)O; 2F3MeF = Cc1cccc(C[C@H](N[*:1])C(=O)[*:2])c1F; Phe(3-Cl) = N[C@@H](Cc1cccc(Cl)c1)C(=O)O; Bta = N[C@@H](Cc1csc2ccccc12)C(=O)O; αAllylPro = C=CC[C@@]1(C(=O)O)CCCN1; tBuAla = CC(C)(C)C[C@H](N)C(=O)O; 3Thi = N[C@@H](Cc1ccsc1)C(=O)O; Cha = N[C@@H](CC1CCCCC1)C(=O)O; PyrS2(4) = not defined here

The target of the first assay is T1, B-cat-Halo (beta-catenin HaloTag fusion …). Nature of the assay: cell-based or functional assay.
Ac-[αAllylPro]N[Cha][B5]DQ[MeGln]AFL[PyrS2]F[Bta][MorphAsn]-NH2 (staple 1-4, 4-11) [I-2502]: the “NanoBRET Abs IC50” value was more than 20 µM.

A further assay deals with T2, B-cat-Halo. Nature of the assay: cell-based or functional assay.
Ac-[αAllylPro]D[tBuAla][B5(22)]D[(Me2NPr)GA]AAFL[PyrS2][3Thi][Bta]Q-NH2 (staple 1-4, 4-11) [I-2234]: the “NanoBRET Abs IC50” value is more than 20 µM.

Consider Ac-[αAllylPro]D[tBuAla][B5(3)]D[Phe(3-COOH)]AAFL[PyrS2″][2F3MeF][Phe(3-Cl)]S-NH2 (staple 1-4, 4-11) [I-2226], for which the “NanoBRET Abs IC50” value amounted to 10.6 µM.

As to Ac-[αAllylPro]D[tBuAla][B5(3)]D[(PfBz)GA]AAFL[PyrS2(4)][3Thi][Bta]Q-NH2 (staple 1-4, 4-11; reading uncertain) [I-2242], the “NanoBRET Abs IC50” value was 21.4 µM.

For the molecule Ac-[αAllylPro]D[tBuAla][B5(22)]D[(4CF3PhAc)GA]AAFL[PyrS2][3Thi][Bta]Q-NH2 (staple 1-4, 4-11) [I-2236], the “NanoBRET Abs IC50” value came out at 15.3 µM.

In the case of Ac-[αAllylPro]D[tBuAla][B5(3)]D[Phe(3-COOH)]QAFL[PyrS2″][2F3MeF][Phe(3-Cl)]A-NH2 (staple 1-4, 4-11) [I-2227], the “NanoBRET Abs IC50” value was determined as 6.3 µM.

Ac-[αAllylPro]D[tBuAla][B5(22)]D[(Pic)GA]AAFL[PyrS2][3Thi][Bta]Q-NH2 (staple 1-4, 4-11) [I-2237]: the “NanoBRET Abs IC50” value was found to be 24.3 µM.

Consider Ac-[αAllylPro]D[tBuAla][B5(22)]D[(MorphAc)GA]AAFL[PyrS2][3Thi][Bta]Q-NH2 (staple 1-4, 4-11) [I-2239], for which the “NanoBRET Abs IC50” value worked out at 31.9 µM.

Ac-[αAllylPro]D[tBuAla][B5(22)]D[(NdiMeButC)GAbu]AAFL[PyrS2][3Thi][Bta]Q-NH2 (staple 1-4, 4-11) [I-2243]: the “NanoBRET Abs IC50” value came out at 25.2 µM.

Consider Ac-[αAllylPro]D[tBuAla][B5(22)]D[(PfPhAc)GA]AAFL[PyrS2][3Thi][Bta]Q-NH2 (staple 1-4, 4-11) [I-2241], for which the “NanoBRET Abs IC50” value stood at 17.7 µM.

For Ac-[αAllylPro]D[tBuAla][B5(3)]D[(NdiMeButC)GA]AAFL[PyrS2″][3Thi][Bta]Q-NH2 (staple 1-4, 4-11) [I-2233], the “NanoBRET Abs IC50” value is more than 20 µM.

For the molecule Ac-[αAllylPro]D[tBuAla][B5(3)]D[Phe(3-COOH)]QAFV[PyrS2(4)][3Thi][Phe(3-Cl)]A-NH2 (staple 1-4, 4-11; reading uncertain) [I-2225], the “NanoBRET Abs IC50” value worked out at 7.8 µM.

In the case of Ac-[αAllylPro]D[tBuAla][B5(22)]D[(MePipAc)GA]AAFL[PyrS2][3Thi][Bta]Q-NH2 (staple 1-4, 4-11) [I-2240], the “NanoBRET Abs IC50” value was more than 20 µM.

With Ac-[αAllylPro]D[tBuAla][B5(22)]D[(4AcMePip)GA]AAFL[PyrS2][3Thi][Bta]Q-NH2 (staple 1-4, 4-11) [I-2235], the “NanoBRET Abs IC50” value was more than 20 µM.

In the next assay the target is T3, B-cat-Halo. The assay is described as follows: cell-based or functional assay.
On to B1, for which the “NanoBRET Abs IC50” value was found to be 22.9 µM.

Ac-[αAllylPro]D[tBuAla][B5(3)]DDAAFN[PyrS2″][3Thi][Bta]QK(Me2NCBz)-NH2 (staple 1-4, 4-11) [I-910]: the “NanoBRET Abs IC50” value was determined as 29.8 µM.
